The target in the data set is VEGF (hVEGF) (Homo sapiens, UniProt P15692-4 P15692-4:27-191). The data set is described as follows: ELISA; remarkable capture efficiency after 4 h at room temperature, PD-10 column filtration; but p70 (FIG. 9) reports OA captured little hVEGF independent of serum incubation time. Particulars: quantified with hVEGF ELISA kit (Komabiotech); chain copies: 2; hairpin. Here is the method: To confirm the hVEGF capture ability of OA, AA, and CA, each prepared sample was mixed with hVEGF solution for 4 hours at room temperature, and the mixed solution was filtered through a PD-10 column (Sephadex G-25, GE Healthcare, Sweden). The amount of non-purified hVEGF was measured by the hVEGF enzyme-linked immunosorbent assay kit (ELISA kit, Komabiotech) according to the manufacturer's guidelines (absorbance measurement at 490 nm by VICTOR3 V™ (Multilabel Counter, Perkin Elmer, Wellesley, Mass., USA)). The hVEGF capture ability of other samples such as OSc, ASc, and CSc was measured in the same way, and the results are shown in FIG. 10.
Chain of VEGF (hVEGF) (P15692 other isoform, or with tags, fused parts or gaps): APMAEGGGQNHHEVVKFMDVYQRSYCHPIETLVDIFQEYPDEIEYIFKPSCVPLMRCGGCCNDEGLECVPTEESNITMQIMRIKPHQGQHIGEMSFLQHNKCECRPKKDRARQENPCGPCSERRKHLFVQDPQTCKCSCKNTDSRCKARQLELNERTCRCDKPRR

B1: OA (oligomeric hVEGF aptamer, Y_Vapt) (ssDNA)
DNA: AGCTTCAGGCGAGGAGCCCACCCCGTCTTCCAGACAAGAGTGCAGGGGTGGCGAGGAGCGGACA
As for B1, the binding result is “binds”.

The values are drawn from US20210371863, “HIGH EFFICIENCY APTAMER COMPLEX COMPRISING BRANCHED DNA AND APTAMER, AND USE THEREOF” (POSTECH ACADEMY-INDUSTRY FOUNDATION, published 2021).
